{
  "source": "patent US11608371",
  "about": "(PETMEDIX, dated 2023)",
  "molecules": {"B1": {"name": "PetML119 (canine p75NTR ECD - canine IgGB wt Fc protein fusion) (Fc fusion)", "chain": "KEACPTGLYTHSGECCKACNLGEGVAQPCGANQTVCEPCLDSVTFSDVVSATEPCKPCTECVGLQSMSAPCVEADDAVCRCAYGYYQDETTGRCEACRVCEAGSGLVFSCQDRQNTVCEECPDGTYSDEANHVDPCLPCTVCEDTERQLRECTRWADAECEEIPGGGGRENGRVPRPPDCPKCPAPEMLGGPSVFIFPPKPKDTLLIARTPEVTCVVVDLDPEDPEVQISWFVDGKQMQTAKTQPREEQFNGTYRVVSVLPIGHQDWLKGKQFTCKVNNKALPSPIERTISKARGQAHQPSVYVLPPSREELSKNTVSLTCLIKDFFPPDIDVEWQSNGQQEPESKYRTTPPQLDEDGSYFLYSKLSVDKSRWQRGDTFICAVMHEALHNHYTQKSLSHSPGK", "notes": "also called PetMI119; Fc-Bwt"}, "B2": {"name": "PetML122 (canine p75NTR ECD - canine Fc YTE protein fusion) (Fc fusion)", "chain": "B1 chain with L206Y, A208T, T210E", "notes": "Same construct as PetML119, but with the YTE triple mutation in the Fc; also called PetMI122; Fc-B-YTE"}, "B3": {"name": "Bedinvetmab (antibody, V domains shown)", "VH": "EVQLVESGGDLVKPGGSLRLSCVASGFTFSSHGMHWVRQSPGKGLQWVAVINSGGSSTYYTDAVKGRFTISRDNAKNTVYLQMNSLRAEDTAMYYCAKESVGGWEQLVGPHFDYWGQGTLVIVSS", "VL": "QSVLTQPTSVSGSLGQRVTISCSGSTNNIGILGASWYQLFPGKAPKLLVYGNGNRPSGVPDRFSGADSGDSVTLTITGLQAEDEADYYCQSFDTTLGAHVFGGGTHLTVL"}},
  "key": {"[1]": {"biological_target": "Canine FcRn-B2M recombinant protein (Immunitrack) (canine)", "test": "SPR (Biacore 8K), canine FcRn-B2M amine-coupled on CM5 chip, running buffer pH 6, steady state affinity"}, "[2]": {"biological_target": "T1, Rat nerve growth factor (NGF) (rat, UniProt P25427 122-241)", "T1 construct": "Bought reagent; also called rat NGF", "T1 sequence (P25427 122-241 limits assumed)": "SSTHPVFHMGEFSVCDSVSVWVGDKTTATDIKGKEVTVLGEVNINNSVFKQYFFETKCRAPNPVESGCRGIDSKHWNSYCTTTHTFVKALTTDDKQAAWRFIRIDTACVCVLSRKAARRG", "test": "SPR (Biacore 8K), PetML119 captured on Protein A chip, rat NGF as analyte, kinetics affinity", "description": "(§1) Briefly, Protein A Sensor Chip (Cytiva) was docked into Biacore 8K, equilibrated for 30' at RT and then Running Buffer (10 mM HEPES pH7.4 150 mM NaCl 3 mM EDTA and 0.005% Tween20) was applied to the SPR chip surface.\n(§2) These have been immobilised using 90 sec association at 10 uL/min as capturing step, followed by injection of running buffer to remove any unbound product.\n(§3) Kinetics were assessed using multi-cycle kinetics with capture step method (30 sec association-120 sec dissociation) followed by regeneration step (0.1M Glycine pH2.2 contact time 60 sec FR 30 uL/min)."}, "[3]": {"biological_target": "T2, Human nerve growth factor (NGF) (human, UniProt P01138 122-241)", "T2 sequence (P01138 122-241 limits assumed)": "as the sequence (P25427 122-241 limits assumed) above, with T3S, V6I, M9R, T37M, A60D, E65D, T92M, D94G, A117V, G120A counted along it", "test": "cell-based or functional assay"}, "[4]": {"biological_target": "T3, Murine FcRn-B2M recombinant protein (Immunitrack) (murine, UniProt Q61559 22-297; P01887 21-119, limits assumed)", "T3 construct": "Bought reagent, amine-coupled to a CM5 chip; also called murine neonatal receptor", "T3 sequence (looked up)": "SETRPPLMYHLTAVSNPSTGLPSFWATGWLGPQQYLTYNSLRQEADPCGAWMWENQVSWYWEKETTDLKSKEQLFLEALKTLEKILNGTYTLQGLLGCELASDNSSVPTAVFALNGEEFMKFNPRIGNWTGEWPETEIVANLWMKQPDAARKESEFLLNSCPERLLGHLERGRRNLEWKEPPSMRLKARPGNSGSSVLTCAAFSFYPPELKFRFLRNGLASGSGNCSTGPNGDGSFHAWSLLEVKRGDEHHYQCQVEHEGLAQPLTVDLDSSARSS", "T3 sequence (b2m, looked up)": "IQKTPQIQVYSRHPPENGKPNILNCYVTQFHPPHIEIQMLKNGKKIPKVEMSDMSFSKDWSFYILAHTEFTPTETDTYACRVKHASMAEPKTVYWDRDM", "test": "SPR (Biacore 8K), murine FcRn-B2M amine-coupled on CM5 chip, running buffer pH 6, steady state affinity", "description": "(§4) Briefly, CM5 Sensor Chip (Cytiva) was docked into Biacore 8K, equilibrated for 30' at RT and then Running Buffer (10 mM HEPES pH6 150 mM NaCl 3 mM EDTA and 0.005% Tween20) was applied to the SPR chip surface.\n(§5) Canine and murine FcRn-B2M recombinant protein (Immunitrack, ITF12-ITF08) was diluted into 10 mM acetate buffer pH4.5 at 4 nM (1:2000 dilution from stock) and immobilised using standard amine coupling reaction."}, "[5]": {"biological_target": "T2, Human nerve growth factor (NGF)", "test": "SPR (Biacore 8K), PetML119 captured on Protein A chip, human NGF as analyte, kinetics affinity", "description": "as §1, §2, §3"}, "[6]": {"biological_target": "T3, Murine FcRn-B2M recombinant protein …", "test": "SPR (Biacore 8K), murine FcRn-B2M amine-coupled on CM5, pH 6, multi-cycle kinetics; reference not named, taken as PetML119 (wild type Fc)", "description": "as §4, §5"}, "[7]": {"biological_target": "T3, Murine FcRn-B2M recombinant protein …", "test": "SPR (Biacore 8K), murine FcRn-B2M amine-coupled on CM5 chip, running buffer pH 6, steady state affinity", "remark": "listed apart in the source", "description": "as §4, §5"}, "[8]": {"biological_target": "T2, Human nerve growth factor (NGF)", "test": "SPR (Biacore 8K), human NGF as analyte on Bedinvetmab, kinetics affinity, 1:1 binding fit"}},
  "note": "Numbering of substitutions follows the chain as printed. Where two headings read alike, the source gives them in different places.",
  "data": [
    {"molecule": "PetML122 (canine p75NTR ECD - canine Fc YTE protein fusion) (Fc fusion)", "values": [
      {"measurement": "Kd", "setting": "[1]", "value": 400, "unit": "nM"}
    ]},
    {"molecule": "PetML119 (canine p75NTR ECD - canine IgGB wt Fc protein fusion) (Fc fusion)", "values": [
      {"measurement": "Kd", "setting": "[1]", "value": 6000, "unit": "nM"}
    ]},
    {"molecule": "B1", "values": [
      {"measurement": "Kd", "setting": "[2]", "value": 0.12, "unit": "nM"},
      {"measurement": "IC50 (nM), inhibition of TF-1 cell proliferation", "setting": "[3]", "value": 15.2, "unit": "nM"},
      {"measurement": "Kd", "setting": "[4]", "value": 2000, "unit": "nM"},
      {"measurement": "Kd", "setting": "[5]", "value": 0.12, "unit": "nM"}
    ]},
    {"molecule": "B2", "values": [
      {"measurement": "fold increase in binding affinity", "setting": "[6]", "value": 10, "unit": "fold"},
      {"measurement": "IC50 (nM), inhibition of TF-1 cell proliferation", "setting": "[3]", "value": 5.91, "unit": "nM"},
      {"measurement": "Kd", "setting": "[7]", "value": 90, "unit": "nM"}
    ]},
    {"molecule": "B3", "values": [
      {"measurement": "Kd", "setting": "[8]", "value": 0.073, "unit": "nM"},
      {"measurement": "IC50 (nM), inhibition of TF-1 cell proliferation", "setting": "[3]", "value": 1.65, "unit": "nM"}
    ]}
  ]
}
